Entries after “also recorded” stand apart in the source; their conditions may differ.
Experiments:
human serum = settings: for effect of protease inhibitor on serum degradation of SHEL (amount of full-length SHEL): SHEL incubated with serum at 37° C., SDS-PAGE, 0.5 mM Pefabloc SC, 5 mM PMSF, 25 mM EDTA, Pefabloc PK, 1 unit Hirudin; for effect of peptide on degradation of SHEL by serum (full-length SHEL, SDS-PAGE, densitometry): molar excess of peptide to SHEL (100:1), preincubated 37° C., SHEL and SHELδ26A
Procedure: Human serum was obtained from fresh intravenous blood, centrifuged at 2000 g to remove red blood cells and then allowed to clot before serum was removed. Aliquots (20 μl) were stored at −20° C. and thawed when needed. 15 μg tropoelastin in 50 mM sodium phosphate buffer, pH 7.8 was incubated with 0.5 μl serum in a 20 μl reaction for between 1 and 18 hr at 37° C. […] All inhibitors were dissolved in water except PMSF which was dissolved in isopropanol. Reactions were analysed by 8% SDS-PAGE. Serum-digested peptides to be used for sequencing were purified by the addition of 1.5 volumes n-propanol, followed by 2.5 volumes n-butanol and stirred overnight. The organic solvents were removed by rotary evaporation and peptides resuspended in 50 mM sodium phosphate buffer, pH 7.8.
Various dilutions of serum from ½– 1/50 in 50 mM sodium phosphate pH7.8 were used and both SHEL and SHELδ26A were used for each experiment.
Experiments were conducted in parallel with S-GAL using identical procedures (see above). Both SHEL and SHELδ26A were used. Each reaction was analysed by 10% SDS-PAGE. Gels were scanned by densitometry and the volume of full-length SHEL calculated as follows. Scanning densitometry of stained gels was performed using the Molecular Dynamics Personal Densitometer. Images were analysed and quantitated using ImageQuant software (Version 3.2, Molecular Dynamics USA).
10 mg/ml SHEL in 50 mM sodium phosphate pH7.8 and 150 mM NaCl was allowed to coacervate at 37° C. until cloudy before adding human plasma kallikrein (6×10^−4U), thrombin (1U), plasmin (1.5×10^−5U), trypsin (2×10^−3U), HLE (1.6×10^−3U) and serum (0.75 μl) for one hour. Control reactions were performed at 16° C. for three hours. Extent of proteolysis was monitored by SDS-PAGE.

gelatinase A = gelatinase A (Homo sapiens, UniProt P08253)
Sequence of gelatinase A (P08253 110-660): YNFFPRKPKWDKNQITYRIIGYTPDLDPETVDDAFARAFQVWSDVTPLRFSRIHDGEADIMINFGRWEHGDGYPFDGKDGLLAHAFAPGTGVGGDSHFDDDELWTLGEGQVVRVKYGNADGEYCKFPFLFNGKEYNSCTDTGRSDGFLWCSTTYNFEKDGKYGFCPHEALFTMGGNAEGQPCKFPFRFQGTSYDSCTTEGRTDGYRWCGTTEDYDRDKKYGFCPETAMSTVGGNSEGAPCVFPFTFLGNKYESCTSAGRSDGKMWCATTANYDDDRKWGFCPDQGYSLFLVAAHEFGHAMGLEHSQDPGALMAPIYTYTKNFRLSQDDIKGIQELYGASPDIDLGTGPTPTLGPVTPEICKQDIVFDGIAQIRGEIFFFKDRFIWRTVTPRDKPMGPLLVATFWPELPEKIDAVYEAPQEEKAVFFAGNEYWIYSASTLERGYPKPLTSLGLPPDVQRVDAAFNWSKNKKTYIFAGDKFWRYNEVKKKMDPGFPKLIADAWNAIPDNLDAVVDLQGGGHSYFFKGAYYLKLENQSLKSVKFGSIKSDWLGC

kallikrein = biological target: T1, kallikrein (Homo sapiens, UniProt P03952); type: biochemical
T1 construct: from tissue; host or cells: human serum
T1 sequence (P03952 20-638): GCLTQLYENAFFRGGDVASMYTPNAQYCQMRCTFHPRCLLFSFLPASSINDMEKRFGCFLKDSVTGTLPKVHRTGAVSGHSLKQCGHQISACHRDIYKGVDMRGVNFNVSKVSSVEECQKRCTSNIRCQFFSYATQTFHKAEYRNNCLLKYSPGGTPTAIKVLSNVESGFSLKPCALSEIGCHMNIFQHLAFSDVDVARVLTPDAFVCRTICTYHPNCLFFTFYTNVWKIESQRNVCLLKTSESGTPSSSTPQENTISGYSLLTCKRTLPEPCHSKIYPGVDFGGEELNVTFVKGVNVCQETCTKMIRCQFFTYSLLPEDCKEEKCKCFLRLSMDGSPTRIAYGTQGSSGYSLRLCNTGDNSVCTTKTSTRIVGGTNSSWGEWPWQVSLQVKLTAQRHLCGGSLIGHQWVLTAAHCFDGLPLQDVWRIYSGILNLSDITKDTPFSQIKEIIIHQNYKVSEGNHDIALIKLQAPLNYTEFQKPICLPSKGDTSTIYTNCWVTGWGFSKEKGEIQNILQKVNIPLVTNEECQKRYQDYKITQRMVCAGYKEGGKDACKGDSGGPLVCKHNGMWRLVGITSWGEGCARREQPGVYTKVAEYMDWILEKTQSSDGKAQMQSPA

human thrombin = biological target: T2, human thrombin (Homo sapiens, UniProt P00734); test: Thrombin digestion of SHEL, SDS-PAGE; type: biochemical; settings: for effect of peptide on degradation of SHEL by thrombin (full-length SHEL, SDS-PAGE, densitometry): molar excess of peptide to SHEL (100:1), SHEL and SHELδ26A
T2 construct: purchased Sigma
Procedure: (§1) A range of enzyme concentrations was originally used to determine the optimal amount for subsequent experiments. Thrombin (0.01–1U), human plasma kallikrein (3×10^−4 to 3×10^−3U), human plasmin (7×10^−5 to 4×10^−7U), bovine trypsin (5×10^−4 to 4×10^−3U), and human leukocyte elastase (1.6×10^−4 to 3.2×10^−3U) were added to 10 μg SHEL or SHELδ26A in 50 mM sodium phosphate buffer pH 7.8 in a total volume of 20 μl. All reactions were performed at 37° C. for one hour. Gelatinase A and B were activated using 0.8 mM APMA at 37° C. for 30 minutes (gelatinase A) or 37° C. for 45 minutes (gelatinase B). Gelatinase A (4×10^−3−4×10^−2) and gelatinase B (2×10^−5−1×10^−4) was added to […] SHEL or SHELd26A in a total volume of […]. Gelatinase B reactions were performed in the presence of 0.75 mM APMA. The degradation profile was analysed by 8, 10 or 12% SDS-PAGE.
(§2) Both SHEL and SHELδ26A were used. Each reaction was analysed by 10% SDS-PAGE.
(§3) Extent of proteolysis was monitored by SDS-PAGE.
Cleavage of GST-SHEL bound to glutathione agarose was performed by washing and resuspending beads in 1× thrombin cleavage buffer (50 mM Tris-HCl pH8.0, 150 mM NaCl, 2.5 mM CaCl2) and adding human thrombin (Sigma) from 0.1 to 1% (w/v) thrombin:fusion protein at 25° C. for one hour (Smith and Johnston 1988). Soluble bacterial lysates used as substrate were incubated similarly with 1× thrombin cleavage buffer, added from a 10× stock. GST (26 kDa) was evident on beads by SDS-PAGE but SHEL could not be identified in the supernatant in numerous experiments. To determine whether thrombin was degrading SHEL, the entire cell lysate was subject to cleavage with increasing concentrations of thrombin. […] GST was clearly present. However, with 0.01U thrombin a band at approximately 64 kDa could be discerned which may represent SHEL although this was not nearly as intense as the GST band.

human plasma kallikrein = biological target: T3, human plasma kallikrein (Homo sapiens, UniProt P03952); test: Kallikrein digestion of SHEL, SDS-PAGE; type: biochemical; settings: molar excess of peptide to SHEL (100:1); SHEL and SHELδ26A
T3 construct: purchased Sigma
T3 sequence (P03952 20-638): as above
Procedure: as §1, §2, §3

[1] = biological target: T4, human leukocyte elastase (HLE) (Homo sapiens, UniProt P08246); test: HLE digestion of SHEL, SDS-PAGE; type: biochemical; settings: molar excess of peptide to SHEL (100:1); SHEL and SHELδ26A
T4 construct: purchased Sigma
T4 sequence (P08246 30-267): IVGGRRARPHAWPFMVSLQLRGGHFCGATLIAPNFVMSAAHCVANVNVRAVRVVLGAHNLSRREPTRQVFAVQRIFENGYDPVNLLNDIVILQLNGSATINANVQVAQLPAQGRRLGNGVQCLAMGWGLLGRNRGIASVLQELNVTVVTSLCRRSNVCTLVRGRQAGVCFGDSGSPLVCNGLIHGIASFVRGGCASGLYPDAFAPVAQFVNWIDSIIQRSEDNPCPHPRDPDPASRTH
Procedure: as §1, §2, §3

human plasmin = biological target: T5, human plasmin (Homo sapiens, UniProt P00747); test: Plasmin digestion of SHEL, SDS-PAGE; type: biochemical; settings: molar excess of peptide to SHEL (100:1); SHEL and SHELδ26A
T5 construct: purchased Sigma
T5 sequence (P00747 97-810): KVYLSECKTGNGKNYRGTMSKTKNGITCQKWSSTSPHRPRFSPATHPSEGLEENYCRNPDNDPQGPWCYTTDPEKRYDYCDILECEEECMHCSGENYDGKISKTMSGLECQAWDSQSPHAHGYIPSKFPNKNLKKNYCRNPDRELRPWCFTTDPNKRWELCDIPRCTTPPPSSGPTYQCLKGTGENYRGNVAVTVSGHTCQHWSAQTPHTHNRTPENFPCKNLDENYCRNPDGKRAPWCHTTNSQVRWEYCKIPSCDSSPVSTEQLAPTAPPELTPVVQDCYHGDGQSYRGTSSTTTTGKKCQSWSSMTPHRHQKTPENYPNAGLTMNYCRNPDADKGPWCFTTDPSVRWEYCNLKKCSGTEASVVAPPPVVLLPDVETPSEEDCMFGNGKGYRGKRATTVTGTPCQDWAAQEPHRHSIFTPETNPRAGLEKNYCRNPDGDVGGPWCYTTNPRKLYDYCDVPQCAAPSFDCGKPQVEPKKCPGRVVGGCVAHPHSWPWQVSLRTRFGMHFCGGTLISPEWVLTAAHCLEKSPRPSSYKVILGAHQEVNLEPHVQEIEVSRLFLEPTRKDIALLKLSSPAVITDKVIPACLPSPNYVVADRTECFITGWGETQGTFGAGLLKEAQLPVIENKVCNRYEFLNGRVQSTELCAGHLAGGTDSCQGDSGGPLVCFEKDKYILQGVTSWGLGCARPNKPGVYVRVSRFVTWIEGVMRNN
Procedure: as §1, §2, §3

bovine trypsin = biological target: T6, bovine trypsin (Bos taurus, UniProt P00760); test: Trypsin digestion of SHEL, SDS-PAGE; type: biochemical; settings: molar excess of peptide to SHEL (100:1); SHEL and SHELδ26A
T6 construct: purchased Boehringer-Mannheim
T6 sequence (P00760 24-246): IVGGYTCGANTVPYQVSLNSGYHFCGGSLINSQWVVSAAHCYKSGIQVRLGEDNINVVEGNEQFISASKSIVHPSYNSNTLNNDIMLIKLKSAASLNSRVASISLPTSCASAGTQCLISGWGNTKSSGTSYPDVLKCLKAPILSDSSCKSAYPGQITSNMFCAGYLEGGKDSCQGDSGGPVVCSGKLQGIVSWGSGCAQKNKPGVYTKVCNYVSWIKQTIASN
Procedure: as §1, §2, §3

Compound | effect of protease inhibitor on serum degradation of SHEL (amount of full-length SHEL) (human serum) | effect of peptide on degradation of SHEL by thrombin (full-length SHEL, SDS-PAGE, densitometry) (human thrombin) | effect of peptide on degradation of SHEL by kallikrein (full-length SHEL, SDS-PAGE, densitometry) (human plasma kallikrein) | effect of peptide on degradation of SHEL by HLE (full-length SHEL, SDS-PAGE, densitometry) [1] | effect of peptide on degradation of SHEL by serum (full-length SHEL, SDS-PAGE, densitometry) (human serum) | effect of peptide on degradation of SHEL by plasmin (full-length SHEL, SDS-PAGE, densitometry) (human plasmin) | effect of peptide on degradation of SHEL by trypsin (full-length SHEL, SDS-PAGE, densitometry) (bovine trypsin) | also measured
O=C(O)CN(CCN(CC(=O)O)CC(=O)O)CC(=O)O [EDTA] | appeared to promote digestion | – | – | – | – | – | – | effect on 64 kDa zone in gelatin zymogram digested with serum (gelatinase A): 64 kDa zone was not observed
O=S(=O)(F)Cc1ccccc1 [PMSF] | protected tropoelastin from cleavage | – | – | – | – | – | – | effect of inhibitor on second cleared zone in SHEL zymogram digested with serum (kallikrein): second cleared zone was not seen
Cl.NCCc1ccc(S(=O)(=O)F)cc1 [Pefabloc SC] | protected tropoelastin from cleavage | – | – | – | – | – | – | –
Hirudin [reference compound] | did not appear to significantly inhibit degradation | – | – | – | – | – | – | inhibition of thrombin degradation of SHEL by inhibitor (human thrombin; not shown): degradation was inhibited
N-AAKAQLRAAAGLGA-C (KAQLRAAAGLGAGI; listed as Homo sapiens) [SPS-peptide] | – | more full-length SHEL using thrombin and HLE but to a lesser extent | more full-length SHEL was evident compared with controls | more full-length SHEL using thrombin and HLE but to a lesser extent | more full-length SHEL was evident compared with controls | more full-length SHEL was evident compared with controls | more full-length SHEL was evident compared with controls | –
N-VVGSPSAQDEASPLS-C (listed as Homo sapiens) [S-GAL, reference compound] | – | some inhibition could be seen | did not show any significant or consistent inhibition | consistently inhibited; also recorded: significant and reproducible inhibition was seen | did not show any significant or consistent inhibition | did not show any significant or consistent inhibition | did not show any significant or consistent inhibition | –

Source: US7229788B1, “Protease susceptibility II” (The University of Sydney, priority 1998, dated 2007)
